Substitutions are numbered along the chain they refer to. Numbers in names are those of the source. Read-outs that look alike come from different tables or passages of the source.

Data set [1] deals with the molecule itself. The data set is described as follows: SEC-MALS.
Data set [2] deals with the molecule itself. Nature of the data set: SEC.
Data set [3] concerns the molecule itself. The data set is described as follows: SEC-MALS. This is another data set of the same source.
Data set [4] concerns the molecule itself. The data set is described as follows: SEC. The source holds these as a separate data set.

B1: Listeria monocytogenes GpsB, full-length wild type (natural protein, L. monocytogenes, UniProt Q8Y614 1-113, looked up)
chain: MTSEQFEYHLTGKEILEKEFKTGLRGYSPEDVDEFLDMVIKDYSTFTQEIEALQAENIRLVQELDNAPLRTSTQPAPTFQAAAQPAGTTNFDILKRLSNLEKHVFGNKLDDNE
As to B1, the “stoichiometry N” value in “SEC-MALS [1]” is 6.

B2: Listeria monocytogenes GpsB F91A, full length (natural protein, L. monocytogenes, UniProt Q8Y614 1-113, looked up)
chain: B1 chain with F91A
In the case of B2, the binding result in the data set “SEC [2]” was “binds”.

B3: Listeria monocytogenes GpsB F91A F105A double mutant, full length (natural protein, L. monocytogenes, UniProt Q8Y614 1-113, looked up)
chain: B1 chain with F91A, F105A
B3: the figures for the “stoichiometry N” value in “SEC-MALS [3]” and in the data set “SEC-MALS [1]” were 3 and 2, respectively.

B4: Bacillus subtilis GpsB T75D, full length (natural protein, B. subtilis, UniProt P0CI74 1-98, looked up)
chain: MLADKVKLSAKEILEKEFKTGVRGYKQEDVDKFLDMIIKDYETFHQEIEELQQENLQLKKQLEEASKKQPVQSNDTNFDILKRLSNLEKHVFGSKLYD
On to B4, for which, in the data set “SEC [4]”, the binding result is recorded as “binds”.

B5: Bacillus subtilis GpsB T75E, full length (natural protein, B. subtilis, UniProt P0CI74 1-98, looked up)
chain: B4 chain with D75E
For the protein B5, the binding result in “SEC [4]” is on record as “binds”.
